Data as given in patent publication US20140037661A1, “Wheat Antigens and Peptides for Diagnosis of Wheat Induced Hypersensitivity” (PHADIA AB, priority 2011, published 2014).

Legend:
[1] = test system: serum IgE antibodies from patients suffering from wheat food allergy; experiment: IgE reactivity dot blot with sera from wheat food allergic patients; format: binding, human; details: for patients showing IgE reactivity: 0.5 μg dotted protein, sera 1:10; for patients reacting to the recombinant protein (IgE): FIG. 12
Description: GluB3-23 is a major allergen in wheat dependent food allergy IgE reactivity of wheat food allergic patients to GluB3-23 and C175 was tested by dot blot analysis shown in FIG. 10 and FIG. 11. 0.5 μg of purified recombinant proteins (GluB3-23 and C175), 2 μg aqueous wheat seed (WSE) extract and 0.5 μg of human serum albumin (HSA) were dotted onto nitrocellulose (Whatman Protran nitrocellulose membrane, Sigma Aldrich) strips and after blocking with buffer A (50 mM sodium phosphate buffer, pH7.4, 0.5% w/v BSA, 0.5% v/v Tween-20, 0.05% w/v NaN3) incubated with 1:10 diluted sera from patients suffering from wheat food allergy. Bound IgE Abs were detected with 1:10 diluted ^125I labeled anti human IgE Abs and visualized by autoradiography.
Sera were obtained from populations of patients suffering from wheat food allergy. Patients were selected according to positive case history, positive Skin Prick Test (SPT), double blind or open food challenge or CAP-test (Phadia, Uppsala, Sweden) to wheat.
The recombinant high molecular weight proteins mal43 and mal82, representing partial proteins of Glu-B1, were tested in dot blots with sera from patients from a population shown in FIG. 11. Sera were obtained from patients suffering from wheat food allergy. Patients were selected according to positive case history and positive Skin Prick Test (SPT) or CAP-test (Phadia, Uppsala, Sweden) to wheat. 0.5 μg of purified recombinant proteins (mal43 and mal82), 2 μg aqueous wheat seed (WSE) extract and 0.5 μg of human serum albumin (HSA) were dotted onto nitrocellulose (Whatman Protran nitrocellulose membrane, Sigma Aldrich) strips and after blocking with buffer A incubated with 1:10 diluted patients sera. Bound IgE Abs were detected with 1:10 diluted ^125I labeled anti human IgE Abs and visualized by autoradiography. […] On the basis of WHO/IRIS Allergen Standardization Committee definition (www.allergen.org), an allergen recognized by 10% of the patients is a minor allergen.
The IgE reactivity of dot-blotted recombinant wheat α-purothionin was tested with serum IgE antibodies from patients suffering from wheat food allergy (Table 3). […] 23% of patients from one population (n=13) and 29% of the patients from another population (n=24) reacted to the recombinant α-purothionin. (FIG. 12).

[2] = test system: serum IgA of celiac disease patients; experiment: IgA reactivity ELISA to wheat food antigens; format: binding, human; details: 5 μg/ml coated, sera 1:100, read at 405 nm, FIG. 15
Description: 100 μl of the wheat proteins GG1 (Gamma gliadin 1), GG2 (Gamma gliadin 2), α-purothionin, GluB3-23, C-175, Mal 82 and Mal 43 of a concentration of 5 μg/ml were coated overnight at 4° C. onto Nunc Maxisorp Elisa plates. The remaining free binding sites were blocked with 1% BSA in PBST for 2 hours at room temperature. 100 μl of sera from celiac disease patients, celiac patients on diet and negative controls were added at a dilution of 1:100 in 0.5% BSA in PBST buffer and incubated for 12 hours at 4° C. The plates were washed 5 times in PBST buffer and 100 μl of mouse anti-human IgA1/A2 (BD Biosciences) diluted to 1:1000 in 0.5% BSA/PBST buffer was added and incubated at room temperature for 5 hours. The plates were then washed 5 times with PBST and 100 μl of sheep anti-mouse IgG conjugated with Horse radish peroxidise (HRP) (Amersham) antibodies were added and incubated at 37° C. for one hour.

[3] = test system: serum IgA from Dermatitis herpetiformis (DH) patients; experiment: Dermatitis herpetiformis serum IgA reactivity ELISA; format: binding, human; details: 5 μg/ml coated; n=12 DH patients, 2 healthy controls; FIG. 18
Description: ELISA plates were coated with 100 μl of 5 μg/ml rGamma gliadin 1, rGamma gliadin 2, α-gliadin peptide p56-75 (α-gli peptide), deamidated α-gliadin peptide (D) and Human serum albumin. The bound proteins were probed with sera from Dermatitis herpetiformis (DH) patients and healthy controls. IgA reactivity to the proteins was detected using mouse anti-human IgA1/A2 and sheep anti-mouse IgG-HRP labelled antibody. (n=12 DH patients and 2 healthy controls).

[4] = test system: IgE binding to GluB3-23; experiment: IgE inhibition dot blot (sera pre-incubated with recombinant protein); design: species or system human
Description: An inhibition dot blot was performed with patients' sera. […] Bound IgE Abs were detected with ^125I-labelled anti human IgE Abs and visualized by autoradiography, the dot intensity was measured by a gamma counter.

[5] = another wheat food allergy patient population, FIG. 11
[6] = serum Pat 3, pre-incubated with 10 μg protein
[7] = serum Pat 8, pre-incubated with 10 μg protein
[8] = serum Pat 10, pre-incubated with 10 μg protein
[9] = serum Pat 11, pre-incubated with 10 μg protein
[10] = serum Pat 12, pre-incubated with 10 μg protein
[11] = wheat food allergy patient population of FIG. 10

Molecule	patients showing IgE reactivity [1, 5] [%]	IgA reactivity [2]	bound IgE, dot intensity by gamma counter [4, 6] [cpm]	bound IgE, dot intensity by gamma counter [4, 8] [cpm]	bound IgE, dot intensity by gamma counter [4, 9] [cpm]	bound IgE, dot intensity by gamma counter [4, 10] [cpm]	other results
mal82: recombinant MBP fusion with part of repetitive region and C-terminal non repetitive region of Glu-B1, hexa-histidine tag (protein, left off: large carriers) PTSPQQSGQGQQGYYPTSPQQSGQGQQGYYPTSPQQSGQGQQPGQGQQPRQGQQGYYPISPQQSGQGQQPGQGQQRYYPTSPQQSGQGQQPGHEQQPGQWLQPGQGQQGYYPTSSQQSGQGHQSGQGQQGYYPTSLWQPGQGQQPGQGQQGYASPYHVSAEYQAARLKVAKAQQLAAQLPAMCRLEGSDALSTRQHHHHHH	30.8	moderate					
GG2: recombinant gamma gliadin 2 with 6×Histidine at the C terminal end, expressed in E. coli (protein) MNIQVDPSSQVQWPQQQPVPQPHQPFSQQPQQTFPQPQQTFPHQPQQQFPQPQQPQQQFLQPQQPFPQQPQQPYPQQPQQPFPQTQQPQQLFPQSQQPQQQFSQPQQQFPQPQQPQQSFPQQQPPFIQPSLQQQVNPCKNFLLQQCKPVSLVSSLWSMIWPQSDCQVMRQQSCQQLAQIPQQLQCAAIHTVIHSIIMQQEQQQGMHILLPLYQQQQVGQGTLVQGQGIIQPQQPAQLEAIRSLVLQTLPTMCNVYVPPECSIIKAPFSSVVAGIGGQYRHHHHHH		high					IgA reactivity, DH patients versus healthy controls [3]: higher IgA reactivity to sera from DH patients than to healthy controls
α-purothionin: clone 84-derived wheat allergen expressed as recombinant protein with C-terminal hexahistidine tag in E. coli (protein, listed as Triticum aestivum, C-terminal His6 tag, clone 84-derived wheat allergen expressed as recombinant protein with C-terminal hexahistidine tag in E. coli) LSSGLSCPKGFPKLALESNSDEPDTIEYCNLGCRSSVCDYMVNAAADDEEMKLYVENCADACVSFCNGDAGLPSLDAY		negative					patients reacting to the recombinant protein (IgE) ([1]; another population (n=24)): 29%; patients reacting to the recombinant protein (IgE) ([1]; one population (n=13)): 23%
GluB3-23: recombinant full length s-LMW glutenin GluB3-23 of wheat without signal peptide, plus hexa-histidine tag (protein) MKTFLIFALLAIVATSAIAQMENSHIPGLERPSQQQPLPPQQTLSHHQQQQPIQQQPQPFSQQQPCSQQQQQPLSQQQQPPFSQQQPPFSQQQQQPLSQQQQPPFSQQQPPFSQQQQPPFSQQQPPFSQQQQPVLPQQPSFSQQQLPPFSQQQSPFSQQQQIVLQQQPPFLQQQQPSLPQQPPFSQQQQQLVLPQQQIPFVHPSILQQLNPCKVFLQQQCSPVAMPQSLARSQMLQQSSCHVMQQQCCQQLPQIPQQSRYEAIRAIIYSIILQEQQQVQGSIQTPQQQPQQLGQCVSQPQQQSQQQLGQQPQQQQLAQGTFLQPHQIAQLEVMTSIALRTLPTMCRVNVPLYRTTTSVPFGVGTGVGSYHHHHHH	80.8	moderate	326.0	36.0	58.9	17.7	% inhibition of IgE binding [4, 6]: 63.3%; % inhibition of IgE binding [4, 7]: 100.0%; bound IgE, dot intensity by gamma counter [4, 7]: 31.5 cpm; % inhibition of IgE binding [4, 8]: 100.0%; % inhibition of IgE binding [4, 9]: 93.8%; patients showing IgE reactivity [1, 11]: 54.5%
C175: recombinant protein of clone 175: the three C-terminal regions of GluB3-23 and the hexa-histidine tag (protein) RQQLGQGQQGYYPTSLQPGQKQQAGQGQQSGQGQQGYYPTSPQQSGQGQQPGQGQPGYYPTSPQQSGQWQQPGQGQQPGQGQQSGQWQLVYYPTSPQQQIVLQQRPPFLQQQQPSLPQQPPFSQQQQQLVLPQQQIPFVHPSILQQLNPCKVFLQQQCSPVAMPQSLARSQMLQQSSCHVMQQQCCQQLPQIPQQSRYEAIRAIIYSIILQEQQQVQGSIQTPQQQPQQLGQCVSQPQQQSQQQLGQQPQQQQLAQGTFLQPHQIAQLEVMTSIALRTLPTMCRVNVPLYRTTTSVPFGVGTGVGSYHHHHHH	73.1	moderate	650.0	379.1	190.0	16.2	% inhibition of IgE binding [4, 6]: 22.6%; % inhibition of IgE binding [4, 7]: 3.0%; bound IgE, dot intensity by gamma counter [4, 7]: 73.9 cpm; % inhibition of IgE binding [4, 8]: 0.0%; % inhibition of IgE binding [4, 9]: 55.3%; potential to inhibit IgE binding to GluB3-23 ([4]; summary of Table 2): low potential to inhibit IgE binding; patients showing IgE reactivity [1, 11]: 27.3%
mal43: recombinant MBP fusion with part of the repetitive domain of HMW glutenin Glu-B1 and hexa-histidine tag (protein, left off: large carriers) RNSGQQLGQGQPGYYPTSQQSEQRQQPGQGKQPGQGQQGYYPTSPQQSGQGQQLGQGQPGYYPTSPQQSGQGQQSGQGQQGYYPTSPQQSGQGQQPGQGQSGYFPTSRQQSGQGQQPGQGQQSGQGQQGQQPGQGQQAYYPTSSQQSRQRQQAGQWQRPGQGQPGYYPTSPQQPGQEQQSGQAQQSGQWQLVYYPTSPQQPGQLQQPAQGQQPAQGQQSAQEQQPGQAQQSGQWQLVYYPTSPQQPGQLQQPAQGQQGYYPTSPQQSGQGQQGYYPTSSRHHHHHH	30.8	moderate					
Bet v 1: recombinant protein used for control pre-incubation of sera in the IgE inhibition dot blot (protein) GVFNYETETTSVIPAARLFKAFILDGDNLFPKVAPQAISSVENIEGNGGPGTIKKISFPEGFPFKYVKDRVDEVDHTNFKYNYSVIEGGPIGDTLEKISNEIKIVATPDGGSILKISNKYHTKGDHEVKAEQVKASKEMGETLLRAVESYLLAHSDAYN			829.0	377.6	379.0	11.5	
GG1: recombinant gamma gliadin 1 with 6×Histidine at the C terminal end, expressed in E. coli (protein) MNIQVDPSGQVQWLQQQLVPQLQQPLSQQPQQTFPQPQQTFPHQPQQQVPQPQQPQQPFLQPQQPFPQQPQQPFPQTQQPQQPFPQQPQQPFPQTQQPQQPFPQQPQQPFPQTQQPQQPFPQLQQPQQPFPQPQQQLPQPQQPQQSFPQQQRPFIQPSLQQQLNPCKNILLQQSKPASLVSSLWSIIWPQSDCQVMRQQCCQQLAQIPQQLQCAAIHSVVHSIIMQQQQQQQQQQGIDIFLPLSQHEQVGQGSLVQGQGIIQPQQPAQLEAIRSLVLQTLPSMCNVYVPPECSIMRAPFASIVAGIGGQHHHHHH		high					IgA reactivity, DH patients versus healthy controls [3]: higher IgA reactivity to sera from DH patients than to healthy controls
